Experiment in all cases: pull-down; in-vitro binding assay: GST fusion protein (1 μM) on glutathione agarose mixed with His-RIT1 (0.5 μM or a concentration series) loaded with GDP or GTPγS; 20 mM Tris-HCl, 100 mM NaCl, 0.1% Triton X-100, 1 mM DTT, 100 mM MgCl2; 30 min at room temperature; anti-His immunoblot
Holding throughout (conditions): both partners purified
(In western blotting, separated proteins are transferred to a membrane and probed.)

The target of assay [1] is T1, His-RIT1^WT (amino acids 1-201) (human, UniProt Q92963-1 1-201).
T1 construct: RIT1, human; loaded with GDP or non-hydrolyzable GTPγS before the assay; also called His-tagged RIT1; recombinant His-tagged RIT1 wildtype; source: E. coli BL21 (pET151/D-TOPO-RIT1^WT), purified

Assay [2] concerns the target T2, His-RIT1^F82L (amino acids 1-201) (human, UniProt Q92963-1 1-201, F82L).
T2 construct: RIT1, human; Noonan syndrome-associated substitution in switch II; loaded with GDP or non-hydrolyzable GTPγS before the assay; also called RIT1 mutant p.F82L (recombinant); source: E. coli BL21 (pET151/D-TOPO-RIT1^F82L), purified

Assay [3] deals with T3, His-RIT1^A57G (amino acids 1-201) (human, UniProt Q92963-1 1-201, A57G).
T3 construct: RIT1, human; Noonan syndrome-associated substitution in switch I; loaded with GDP or non-hydrolyzable GTPγS before the assay; also called RIT1 mutant p.A57G (recombinant); source: E. coli BL21 (pET151/D-TOPO-RIT1^A57G), purified

Two molecules from paper PMC5937737, “RIT1 controls actin dynamics via complex formation with RAC1/CDC42 and PAK1” (PLoS Genetics, 2018) can be followed below.

T1 sequence (Q92963 1-201): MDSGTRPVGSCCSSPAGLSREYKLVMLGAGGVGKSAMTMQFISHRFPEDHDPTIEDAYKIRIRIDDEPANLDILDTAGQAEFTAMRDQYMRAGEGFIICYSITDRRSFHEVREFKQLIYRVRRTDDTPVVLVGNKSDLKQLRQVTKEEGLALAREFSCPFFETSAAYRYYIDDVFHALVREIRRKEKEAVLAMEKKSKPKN
T3 sequence (Q92963 1-201 A57G): as the sequence (Q92963 1-201) above, with A57G counted along it
T2 sequence (Q92963 1-201 F82L): as the sequence (Q92963 1-201) above, with F82L counted along it

B1: GST-CDC42 (amino acids 1-178) (domain or fragment)
chain: not shown
notes: CDC42, amino acids 1-178; loaded with GDP or GTPγS before the assay; source: E. coli BL21 (pGEX-4T3-CDC42), isolated, coupled to glutathione agarose beads
Take B1: the binding result in assay [1] was “binds”.

B2: GST-PAK[CRIB] (domain or fragment, UniProt Q13153 58-141, looked up)
chain: ILPGDKTNKKKEKERPEISLPSDFEHTIHVGFDAVTGEFTGMPEQWARLLQTSNITKSEQKKNPQAVLDVLEFYNSKKTSNSQK
notes: PAK1, CRIB domain, amino acids 58-141; source: E. coli BL21 (pGEX-2TK-PAK[CRIB]), isolated, coupled to glutathione agarose beads
Regarding B2, the binding result in assay [2], in assay [1] and in assay [3] was “binds” each time.
